Our source for the relative light units of bound cells (~7.5 pmol MAdCAM-1 coated) values is PMC5526109.

This experiment concerns the target MAdCAM-1 (mucosal addressin cell adhesion molecule-1) (UniProt Q13477). Nature of the experiment: cell adhesion assay.
Chain of UniProt Q13477 (Q13477 19-382): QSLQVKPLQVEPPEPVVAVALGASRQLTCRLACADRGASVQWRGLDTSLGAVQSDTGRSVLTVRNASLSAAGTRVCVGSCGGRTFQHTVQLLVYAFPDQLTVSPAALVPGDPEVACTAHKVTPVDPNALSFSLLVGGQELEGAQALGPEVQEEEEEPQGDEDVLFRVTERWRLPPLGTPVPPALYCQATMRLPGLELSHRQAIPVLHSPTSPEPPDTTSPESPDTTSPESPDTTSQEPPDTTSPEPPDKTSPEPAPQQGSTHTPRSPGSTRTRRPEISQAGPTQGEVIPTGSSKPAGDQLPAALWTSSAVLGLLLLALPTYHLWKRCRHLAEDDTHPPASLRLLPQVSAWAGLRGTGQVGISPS

Regarding “α4β7 integrin (from UniProt P13612 34-1032; P26010 20-798) (receptor)”, the relative light units of bound cells (~7.5 pmol MAdCAM-1 coated) came out at 1e+06 RLU.
